# Source: patent US20240148892A1 (DUALITY BIOLOGICS SUZHOU, published 2024)
# B1: W301088-1.145.16-z3-p1-uIgG1KV320 (antibody, V domains shown)
# VH: QVQLQESGPGLVKPSQTLSLTCTVTDYSITGDYAWNWIRQHPGKGLEWIGYISYSGSTSYNPSLQSRVTISRDTSKNQFSLKLSSVTAADTAVYFCARSLGRRWYFVVWGQGTTVTVSS
# VL: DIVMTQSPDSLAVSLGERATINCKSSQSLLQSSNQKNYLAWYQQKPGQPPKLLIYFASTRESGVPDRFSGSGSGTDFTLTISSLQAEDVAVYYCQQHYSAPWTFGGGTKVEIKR
# notes: Humanized, PTM-removed (VL N027dQ) human IgG1 LALA kappa antibody; also called WBP301088; W301088-z3-p1
# Target: T1, Human B7-H3(4Ig), His Tag (human, UniProt Q5ZPR3 29-461)
# T1 construct: Bought protein; also called recombinant human B7H3 antigen; human B7-H3 protein; not shown: His tag
# T1 sequence (looked up): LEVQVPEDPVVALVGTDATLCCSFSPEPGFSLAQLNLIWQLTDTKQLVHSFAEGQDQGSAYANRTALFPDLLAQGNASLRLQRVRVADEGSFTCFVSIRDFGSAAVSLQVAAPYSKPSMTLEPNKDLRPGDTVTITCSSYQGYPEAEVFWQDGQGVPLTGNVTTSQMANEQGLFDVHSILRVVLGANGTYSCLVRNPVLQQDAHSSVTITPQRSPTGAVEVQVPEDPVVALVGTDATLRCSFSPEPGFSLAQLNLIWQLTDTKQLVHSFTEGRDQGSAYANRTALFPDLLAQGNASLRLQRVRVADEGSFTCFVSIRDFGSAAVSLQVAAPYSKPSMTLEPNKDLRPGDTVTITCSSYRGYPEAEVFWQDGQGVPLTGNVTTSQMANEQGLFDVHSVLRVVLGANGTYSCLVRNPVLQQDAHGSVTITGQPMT
# Assay: ELISA, plate coated with 2 µg/mL recombinant human B7-H3 (4Ig) His, serially diluted antibody, HRP anti-human secondary antibody, OD450
# Description: A 96-well ELISA plate was coated with 2 μg/mL recombinant human B7H3 antigen (see the table above) at 30 μL/well and kept at 4° C. overnight. The following day, the well plate was washed 3 times with PBST and then blocked with 5% skim milk for 2 h. […] The plate was then washed 3 times with PBST, and an HRP-labeled anti-human secondary antibody diluted in a 1:5000 ratio was then added at 100 μL/well and incubated for 1 h. After the incubation was complete, the plate was washed six times with PBST, and TMB (SurModics, TMBS-1000-01) was added for color development. Based on the results of the color development, the reaction was stopped by adding 2M HCl, and the plate was read by a microplate reader (Molecular Devices, SpecterMax 190) at OD450.
binder,measurement,value
B1,EC50 (read off the curve),~0.2 µg/mL
